In patent US20060057696A1, “Sugar chain synthases” (priority 2002, published 2006):

T1: PA-hST8Sia VI (human ST8Sia VI) (Homo sapiens, UniProt P61647, L267F)
T1 construct: amino acids 68-398 in the case of human ST8Sia VI; signal peptide of mouse immunoglobulin IgM (N); made in house; host or cells: COS-7 cells, transient expression of pcDSA-hST8Sia VI; protein recovered from medium on IgG-Sepharose
T1 sequence (P61647 68-398 L267F): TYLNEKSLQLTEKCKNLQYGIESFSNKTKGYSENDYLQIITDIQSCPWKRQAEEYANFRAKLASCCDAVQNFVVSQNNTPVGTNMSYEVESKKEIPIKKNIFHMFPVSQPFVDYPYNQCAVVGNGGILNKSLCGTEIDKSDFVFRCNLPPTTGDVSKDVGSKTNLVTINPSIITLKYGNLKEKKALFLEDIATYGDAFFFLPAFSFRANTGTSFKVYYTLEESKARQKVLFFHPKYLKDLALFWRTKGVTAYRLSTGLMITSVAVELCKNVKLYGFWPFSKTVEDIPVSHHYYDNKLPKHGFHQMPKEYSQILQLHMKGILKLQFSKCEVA

T2: PA-mST8Sia VI (Mus musculus, UniProt Q8K4T1)
T2 construct: amino acids 26-398 in the case of mouse ST8Sia VI; signal peptide of mouse immunoglobulin IgM (N); made in house; host or cells: COS-7 cells, transient expression of pcDSA-mST8Sia VI; protein recovered from medium on IgG-Sepharose
T2 sequence (Q8K4T1 26-398): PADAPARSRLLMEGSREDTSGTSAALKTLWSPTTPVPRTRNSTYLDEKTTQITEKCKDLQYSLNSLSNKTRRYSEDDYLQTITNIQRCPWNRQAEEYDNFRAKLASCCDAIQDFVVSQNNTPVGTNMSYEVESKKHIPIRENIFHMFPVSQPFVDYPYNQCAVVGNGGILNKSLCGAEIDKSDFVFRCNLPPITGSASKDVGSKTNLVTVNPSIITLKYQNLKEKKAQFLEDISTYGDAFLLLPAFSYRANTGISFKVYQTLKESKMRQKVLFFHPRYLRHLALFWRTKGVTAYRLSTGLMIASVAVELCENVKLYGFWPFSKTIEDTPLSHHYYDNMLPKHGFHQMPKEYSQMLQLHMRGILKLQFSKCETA

T3: mouse ST8Sia III (Mus musculus, UniProt Q64689)
T3 sequence (Q64689 1-380): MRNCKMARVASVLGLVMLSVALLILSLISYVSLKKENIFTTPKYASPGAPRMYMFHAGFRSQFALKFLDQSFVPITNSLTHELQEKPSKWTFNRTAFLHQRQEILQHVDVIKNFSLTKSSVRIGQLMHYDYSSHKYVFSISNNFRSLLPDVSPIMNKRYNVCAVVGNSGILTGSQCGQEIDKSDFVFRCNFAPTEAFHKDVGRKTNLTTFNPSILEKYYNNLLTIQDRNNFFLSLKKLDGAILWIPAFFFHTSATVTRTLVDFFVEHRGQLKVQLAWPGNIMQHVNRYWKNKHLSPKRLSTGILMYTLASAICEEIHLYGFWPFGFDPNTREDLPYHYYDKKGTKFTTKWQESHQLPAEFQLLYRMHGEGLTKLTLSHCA


How the values were obtained:
Assay type in all cases: biochemical
[1] = biological target: T1, PA-hST8Sia VI (human ST8Sia VI); experiment: Sialyltransferase activity of PA-hST8Sia VI toward acceptor substrates; details: incorporation with Fetuin taken as 100, substrate 0.5 mg/ml glycolipids, 1 mg/ml glycoproteins, monosaccharides and oligosaccharides
Description: Using each expression vector and lipofectamine (Invitrogen), transient expression was carried out in COS-7 cells (Kojima, N. et al. (1995) FEBS Lett. 360, 1-4). The proteins of the present invention secreted from the cells into which each expression vector had been introduced were named as PA-mST8Sia VI (mouse) and PA-hST8Sia VI (human). PA-mST8Sia VI and PA-hST8Sia VI were adsorbed to IgG-Sepharose (Amersham Pharmacia Biotech), and were then recovered from medium. Sialyltransferase activity was measured as follows according to the method of Lee et al. (Lee, Y.-C. et al. (1999) J. Biol. Chem. 274, 11958-11967). A reaction solution (10 μl) containing 50 mM MES buffer (pH 6.0), 1 mM MgCl2, 1 mM CaCl2, 0.5% Triton CF-54, 100 μM CMP-[^14C]-NeuAc, a glycoconjugate (which was added at 0.5 mg/ml in the case of glycolipids, and at 1 mg/ml in the case of glycoproteins or oligosaccharides), and a PA-mST8Sia VI or PA-hST8Sia VI suspension, was incubated at 37° C. for 3 to 20 hours. Thereafter, in the case of glycolipids, the reaction product was purified with a C-18 column (Sep-Pak Vac 100 mg; Waters) and the purified product was used as a sample, and in the case of oligosaccharides or glycoproteins, the reaction product was directly used as a sample. Thus, the obtained samples were subjected to analysis. In the case of oligosaccharides or glycolipids, the sample was spotted on a silica gel 60 HPTLC plate (Merck), and was then developed with a developing solvent consisting of ethanol:pyridine:n-butanol:water:acetic acid=100:10:10:30:3 (for oligosaccharides), a developing solvent consisting of 1-propanol:ammonia water:water=6:1:2.5 (for oligosaccharides), or a developing solvent consisting of chloroform:methanol: 0.02% CaCl2=55:45:10 (for glycolipids). In the case of glycoproteins, analysis was carried out by SDS-polyacrylamide gel electrophoresis. The obtained radioactivities were visualized with a BAS2000 radio image analyzer (Fuji Film) and then quantified.

[2] = biological target: T2, PA-mST8Sia VI; experiment: N-glycanase treatment of Fetuin sialylated with [14C]-NeuAc by PA-mST8Sia VI; details: sialylated by PA-mST8Sia VI with [14C]-NeuAc; shows incorporation into O-glycans
Description: (§1) In FIG. 4, Fetuin was [^14C]-NeuAc-incorporated by ST8Sia III or ST8Sia VI and then treated with N-glycanase. The [^14C]-NeuAc-incorporated Fetuin was treated with N-glycanase, and the treated product was analyzed by SDS-PAGE. Thereafter, it was visualized with a BAS2000 radio image analyzer.
(§2) It was found by an N-glycanase treatment that when Fetuin was used as a substrate, the majority of sialic acid, which was newly introduced by PA-mST8Sia VI, was incorporated into O-glycans (FIG. 4). That is, when Fetuin was sialylated by PA-mST8Sia VI with [^14C]-NeuAc, and the sialylated product was then treated with N-glycanase, which releases N-glycans from a peptide portion. The majority (82.7%) of radioactivity was still kept in the Fetuin after this treatment. […] On the other hand, the same experiment was carried out using mouse ST8Sia III, which used N-glycans of Fetuin as substrates.

[3] = biological target: T3, mouse ST8Sia III; experiment: N-glycanase treatment of Fetuin sialylated with [14C]-NeuAc by mouse ST8Sia III
Description: as §1, §2

Row | Relative rate (%) Human ST8Sia VI [1] [%] | radioactivity still kept in the Fetuin after N-glycanase treatment [2] [%] | radioactivity in Fetuin after N-glycanase treatment (in words) [3] | Molecule
1 | 0 |  |  | Asialo- α1-Acid glycoprotein: desialylated α1-acid glycoprotein prepared at 80° C. for 1 hour in 0.02 N HCl
2 | 100 | 82.7 | completely disappeared | Fetuin: glycoprotein acceptor substrate containing both O-glycans and N-glycans, purchased from Sigma

Second part, the molecule before the results:

Row | Molecule | Relative rate (%) Human ST8Sia VI [1] [%] | radioactivity still kept in the Fetuin after N-glycanase treatment [2] [%] | radioactivity in Fetuin after N-glycanase treatment (in words) [3]
3 | Asialofetuin: asialo glycoprotein acceptor substrate purchased from Sigma | 0 |  | 
4 | NeuAcα2,3Galβ1,4Glcβ1-Cer [GM3] | 1.6 |  | 
5 | α1-Acid glycoprotein: glycoprotein acceptor substrate purchased from Sigma | 0 |  | 
6 | Ovomucoid: glycoprotein acceptor substrate which contains only N-glycans (protein, UniProt P01005 25-210, looked up) Ovomucoid: AEVDCSRFPNATDKEGKDVLVCNKDLRPICGTDGVTYTNDCLLCAYSIEFGTNISKEHDGECKETVPMNCSSYANTTSEDGKVMVLCNRAFNPVCGTDGVTYDNECLLCAHKVEQGASVDKRHDGGCRKELAAVSVDCSEYPKPDCTAEDRPLCGSDNKTYGNKCNFCNAVVESNGTLTLSHFGKC | 12.3 |  | 
7 | Asialoovomucoid: desialylated ovomucoid prepared at 80° C. for 1 hour in 0.02 N HCl (protein, UniProt P01005 25-210, looked up, desialylated, desialylated ovomucoid prepared at 80° C. for 1 hour in 0.02 N HCl) Ovomucoid: AEVDCSRFPNATDKEGKDVLVCNKDLRPICGTDGVTYTNDCLLCAYSIEFGTNISKEHDGECKETVPMNCSSYANTTSEDGKVMVLCNRAFNPVCGTDGVTYDNECLLCAHKVEQGASVDKRHDGGCRKELAAVSVDCSEYPKPDCTAEDRPLCGSDNKTYGNKCNFCNAVVESNGTLTLSHFGKC | 0 |  | 
